Several values for one entry are separate records, joined by “and”; a condition that tells them apart may be missing. Identical values can stand only once. Blank lines part the entries; values can stand above or below the binder they belong to. Where no end group is shown, it is not given here. The star is where a group is joined. Biotin = O=C1N[C@H]2[C@H](CS[C@H]2CCCCC(=O)*)N1
How the values were obtained:
[1] = target: T1, peptide 1-19, bio-PSMTLEPNKD LRPGDTVT A (145-164); assay: ELISA on biotin-labeled alanine-scan peptides
T1 construct: Alanine-scan variant of peptide 1
T1 peptide: Biotin-PSMTLEPNKDLRPGDTVTA

[2] = target: T2, peptide 1-17, bio-PSMTLEPNKD LRPGDT ATI (145-164); assay: ELISA on biotin-labeled alanine-scan peptides
T2 construct: Alanine-scan variant of peptide 1
T2 peptide: Biotin-PSMTLEPNKDLRPGDTATI

[3] = target: T3, peptide 1-9, bio-PSMTLEPN AD LRPGDTVTI (145-164); assay: ELISA on biotin-labeled alanine-scan peptides
T3 construct: Alanine-scan variant of peptide 1
T3 peptide: Biotin-PSMTLEPNADLRPGDTVTI

[4] = target: T4, peptide 1-6, bio-PSMTL APNKD LRPGDTVTI (145-164); assay: ELISA on biotin-labeled alanine-scan peptides
T4 construct: Alanine-scan variant of peptide 1
T4 peptide: Biotin-PSMTLAPNKDLRPGDTVTI

[5] = target: T5, peptide 1-3, bio-PS ATLEPNKD LRPGDTVTI (145-164); assay: ELISA on biotin-labeled alanine-scan peptides
T5 construct: Alanine-scan variant of peptide 1
T5 peptide: Biotin-PSATLEPNKDLRPGDTVTI

[6] = target: T6, peptide 1-1, bio-ASMTLEPNKD LRPGDTVTI (145-164); assay: ELISA on biotin-labeled alanine-scan peptides
T6 construct: Alanine-scan variant of peptide 1
T6 peptide: Biotin-ASMTLEPNKDLRPGDTVTI

[7] = target: T7, peptide 1-5, bio-PSMT AEPNKD LRPGDTVTI (145-164); assay: ELISA on biotin-labeled alanine-scan peptides
T7 construct: Alanine-scan variant of peptide 1
T7 peptide: Biotin-PSMTAEPNKDLRPGDTVTI

[8] = target: T8, peptide 1-8, bio-PSMTLEP AKD LRPGDTVTI (145-164); assay: ELISA on biotin-labeled alanine-scan peptides
T8 construct: Alanine-scan variant of peptide 1
T8 peptide: Biotin-PSMTLEPAKDLRPGDTVTI

[9] = target: T9, peptide 1-16, bio-PSMTLEPNKD LRPGD AVTI (145-164); assay: ELISA on biotin-labeled alanine-scan peptides
T9 construct: Alanine-scan variant of peptide 1
T9 peptide: Biotin-PSMTLEPNKDLRPGDAVTI

[10] = target: T10, peptide 1-13, bio-PSMTLEPNKD LR AGDTVTI (145-164); assay: ELISA on biotin-labeled alanine-scan peptides
T10 construct: Alanine-scan variant of peptide 1
T10 peptide: Biotin-PSMTLEPNKDLRAGDTVTI

[11] = target: T11, peptide 1-2, bio-P AMTLEPNKD LRPGDTVTI (145-164); assay: ELISA on biotin-labeled alanine-scan peptides
T11 construct: Alanine-scan variant of peptide 1
T11 peptide: Biotin-PAMTLEPNKDLRPGDTVTI

[12] = target: T12, peptide 1-18, bio-PSMTLEPNKD LRPGDTV AI (145-164); assay: ELISA on biotin-labeled alanine-scan peptides
T12 construct: Alanine-scan variant of peptide 1
T12 peptide: Biotin-PSMTLEPNKDLRPGDTVAI

[13] = target: T13, peptide 1-4, bio-PSM ALEPNKD LRPGDTVTI (145-164); assay: ELISA on biotin-labeled alanine-scan peptides
T13 construct: Alanine-scan variant of peptide 1
T13 peptide: Biotin-PSMALEPNKDLRPGDTVTI

[14] = target: T14, crab-eating macaque CD276-ECD (crab-eating macaque, UniProt Q5ZPR3 217-452 (human entry)); assay: indirect ELISA, plate coated with crab-eating macaque CD276-ECD
T14 construct: Purchased from Acro BIOSYSTEMS; also called crab-eating macaque CD276-ECD protein; crab-eating macaque CD276-ECD antigen
T14 chain: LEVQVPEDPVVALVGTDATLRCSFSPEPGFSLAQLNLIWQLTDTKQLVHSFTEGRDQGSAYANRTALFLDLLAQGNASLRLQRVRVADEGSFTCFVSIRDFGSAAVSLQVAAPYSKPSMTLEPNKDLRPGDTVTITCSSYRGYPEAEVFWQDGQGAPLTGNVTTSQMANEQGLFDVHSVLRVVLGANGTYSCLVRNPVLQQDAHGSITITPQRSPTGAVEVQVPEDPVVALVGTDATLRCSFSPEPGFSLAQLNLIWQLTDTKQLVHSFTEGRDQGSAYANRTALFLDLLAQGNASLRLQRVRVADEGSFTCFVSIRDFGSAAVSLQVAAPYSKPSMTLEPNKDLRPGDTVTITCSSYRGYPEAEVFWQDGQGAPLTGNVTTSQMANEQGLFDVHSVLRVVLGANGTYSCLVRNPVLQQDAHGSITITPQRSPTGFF
Description: (§1) The specific method was as follows: The plates were pre-coated with crab-eating macaque and mouse CD276-ECD proteins diluted to 2 μg/mL in the coating solution (50 mM carbonate coating buffer, pH 9.6) and incubated at 4° C. overnight. The plates were then blocked with 5% skim milk powder at 37° C. for 2 hours. Afterward, the plates were washed 3 times with PBST, and the to-be-tested antibody, diluted in 1% BSA-PBST at various gradients, was added to the blocked plates at 100 μL per well. The plates were incubated at 37° C. for 1 hour. After washing the plates 3 times with PBST, HRP-conjugated goat anti-mouse IgG secondary antibody (purchased from Millipore) was added, and the plates were incubated at 37° C. for 30 minutes. After 3 more washes with PBST, residual droplets were removed by blotting on absorbent paper. Then, 100 μL of TMB substrate (purchased from KPL) was added to each well, and the plates were incubated at room temperature (20±5° C.) in the dark for 5 minutes. Finally, 50 μL of 2 M H2SO4 was added to each well to terminate the substrate reaction, and the OD value at 450 nm was read using a microplate reader to analyze the binding ability of the to-be-tested antibody to the target antigens, i.e., crab-eating macaque and mouse CD276-ECD proteins.

[15] = target: T15, human CD276 on the surface of tumor cells (human, UniProt Q5ZPR3 29-534); assay: flow cytometry on human renal cancer cells A498
T15 construct: whole, on cells; Endogenous expression on human tumor cell lines; also called CD276 on A498 cells
T15 sequence (looked up): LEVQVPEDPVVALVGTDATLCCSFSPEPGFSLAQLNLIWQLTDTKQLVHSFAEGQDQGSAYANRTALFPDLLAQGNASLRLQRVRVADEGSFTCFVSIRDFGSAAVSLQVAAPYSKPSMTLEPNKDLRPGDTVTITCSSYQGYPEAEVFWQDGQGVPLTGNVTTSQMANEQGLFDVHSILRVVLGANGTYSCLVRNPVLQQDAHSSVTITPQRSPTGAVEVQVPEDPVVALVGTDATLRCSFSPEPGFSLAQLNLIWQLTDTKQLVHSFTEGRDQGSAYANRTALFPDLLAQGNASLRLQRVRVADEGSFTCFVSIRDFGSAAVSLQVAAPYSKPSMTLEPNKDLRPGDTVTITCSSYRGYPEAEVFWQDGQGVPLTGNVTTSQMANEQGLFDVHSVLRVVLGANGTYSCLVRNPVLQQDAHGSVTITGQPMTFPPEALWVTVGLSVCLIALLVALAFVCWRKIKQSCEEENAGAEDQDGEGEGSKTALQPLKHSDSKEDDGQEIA
Description: In this experiment, human renal cancer cells A498 were used as the target cells. […] The cells were washed twice with PBS to remove those secondary antibody unbinding to the cells and then resuspended in 100 μL PBS.

mouse CD276-ECD = target: T16, mouse CD276-ECD (mouse, UniProt Q8VE98 29-244); assay: indirect ELISA, plate coated with 2 µg/mL mouse CD276-ECD
T16 construct: Purchased from Acro BIOSYSTEMS; also called mouse CD276-ECD protein
T16 sequence: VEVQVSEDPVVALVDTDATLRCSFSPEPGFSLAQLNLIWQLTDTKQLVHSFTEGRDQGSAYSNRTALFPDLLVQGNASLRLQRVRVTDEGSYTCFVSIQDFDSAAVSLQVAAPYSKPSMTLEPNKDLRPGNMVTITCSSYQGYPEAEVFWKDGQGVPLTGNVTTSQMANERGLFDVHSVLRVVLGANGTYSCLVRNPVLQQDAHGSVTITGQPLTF
Description: as §1

C2-type 1-Fc = target: T17, C2-type 1-Fc (human); assay: Western blot on Fc fusion proteins of the domains
T17 construct: Expressed in Expi-293F cells, purified on Protein A, tested by Western blot; also called Ig-like C2-type 1 (Domain 2) of human CD276-ECD linked to human Fc; second functional domain of human CD276-ECD

[16] = target: T18, recombinant human CD276-ECD protein (human, UniProt Q5ZPR3 29-255); assay: indirect ELISA, plate coated with human CD276-ECD
T18 construct: Purchased from Acro BIOSYSTEMS; Used native (ELISA) and reduced and denatured (Western blot); also called B7-H3
T18 sequence: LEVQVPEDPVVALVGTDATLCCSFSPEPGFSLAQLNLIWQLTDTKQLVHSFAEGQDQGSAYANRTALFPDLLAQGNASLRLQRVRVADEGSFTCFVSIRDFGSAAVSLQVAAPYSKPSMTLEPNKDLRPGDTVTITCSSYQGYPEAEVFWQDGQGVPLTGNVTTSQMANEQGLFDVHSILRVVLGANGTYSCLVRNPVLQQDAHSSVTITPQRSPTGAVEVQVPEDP

[17] = target: T19, biotinylated human CD122/132 (human, UniProt P14784 27-239; P31785 23-254, limits assumed, biotinylated (site not stated)); assay: sandwich ELISA: antibody on coated human CD276-ECD, biotinylated CD122/132 detected with SA-HRP
T19 construct: Bought heterodimeric reagent; also called CD122/CD132
T19 sequence (looked up) 1: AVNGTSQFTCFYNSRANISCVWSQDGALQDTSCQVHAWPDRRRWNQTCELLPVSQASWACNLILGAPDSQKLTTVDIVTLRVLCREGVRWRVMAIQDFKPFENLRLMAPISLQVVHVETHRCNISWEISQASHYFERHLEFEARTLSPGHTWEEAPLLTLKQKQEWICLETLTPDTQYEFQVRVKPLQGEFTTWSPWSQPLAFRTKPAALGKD
T19 sequence (looked up) 2: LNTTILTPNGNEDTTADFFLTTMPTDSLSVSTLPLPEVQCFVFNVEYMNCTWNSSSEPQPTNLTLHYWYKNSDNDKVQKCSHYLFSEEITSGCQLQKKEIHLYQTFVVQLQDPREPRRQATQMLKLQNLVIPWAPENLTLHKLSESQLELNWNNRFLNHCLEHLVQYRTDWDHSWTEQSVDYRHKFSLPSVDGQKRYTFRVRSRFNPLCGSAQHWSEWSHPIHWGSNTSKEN
Description: The method was as follows: The plates were pre-coated with human CD276-ECD protein diluted to 2 μg/mL in the coating solution (50 mM carbonate coating buffer, pH 9.6) and incubated at 4° C. overnight. The plates were then blocked with 5% skim milk powder at 37° C. for 2 hours. Afterward, the plates were washed 3 times with PBST, and the to-be-tested antibody, diluted in 1% BSA-PBST at various gradients, was added to the blocked plates at 100 μL per well. The plates were incubated at 37° C. for 1 hour. […] Following 3 additional washes with PBST, diluted HRP-conjugated streptavidin (SA) (purchased from Pierce) was added, and the plates were incubated at 37° C. for 30 minutes. After 3 more washes with PBST, residual droplets were removed by blotting on absorbent paper. Then, 100 μL of TMB substrate (purchased from KPL) was added to each well, and the plates were incubated at room temperature (20±5° C.) in the dark for 5 minutes.
As a control, hu147 could bind to CD276 (as shown in Embodiment 8), but not CD122/CD132.

T17 sequence (chain, as listed by the source limits assumed): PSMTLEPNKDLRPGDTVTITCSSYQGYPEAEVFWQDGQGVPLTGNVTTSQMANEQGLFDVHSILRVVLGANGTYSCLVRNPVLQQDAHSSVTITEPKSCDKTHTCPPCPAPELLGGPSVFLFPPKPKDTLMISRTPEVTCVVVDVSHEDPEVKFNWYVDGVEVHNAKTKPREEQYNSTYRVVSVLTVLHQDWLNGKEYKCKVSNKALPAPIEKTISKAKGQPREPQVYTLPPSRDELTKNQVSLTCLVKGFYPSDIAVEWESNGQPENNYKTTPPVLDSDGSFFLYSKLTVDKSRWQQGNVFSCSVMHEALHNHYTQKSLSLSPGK

- binding result [1]: binds
- binding result [2]: binds
- binding result [3]: binds
- binding result [4]: binds
- binding result [5]: binds
- binding result [6]: binds
- binding result [7]: binds
- binding result [8]: binds
- binding result [9]: binds
- binding result [10]: binds
- binding result [11]: binds
- binding result [12]: binds
- binding result [13]: binds
- EC50 [14]: 0.0302 µg/mL and 0.2 nM
- EC50 [15]: 0.0592 µg/mL and 0.39 nM
- binding result (mouse CD276-ECD): no binding
- binding result (C2-type 1-Fc): binds
- EC50 [16]: 0.0384 µg/mL and 0.26 nM
B1: murine monoclonal antibody 147# (antibody, V domains shown)
VH: QVQLKQSGIELVRPGASVKLSCKTSGYIFTADWIYWVKQRSGQGLEWIGRIYPGVDSTYYNEKFKDKAILTADKSSSTAYMQLNSLKSEDSAVYFCARGGEVRRDFYALDYWGQGTSVTVSS
VL: NIVMTQSPESMSMSLGERVTLSCKASENVGTYVSWYQQKPEQSPKLLIYGASNRYTGVPARFTGSGSATDFTLTISSVQAEDLADYHCGQRYSYPFTFGSGTKLEIK
notes: Murine antibody purified from hybridoma supernatant by Protein G and detected with anti-mouse IgG

- binding result [17]: no binding
- EC50 [16]: 0.0067 µg/mL and 0.04 nM
B2: humanized antibody hu147 (antibody)
heavy: not shown
light: EIVMTQSPPTLSLSPGERVTLSCRASENVGTYVSWYQQKPGQAPRLLIYGASNRYTGIPARFSGSGSGTDFTLTISSLQPEDFAVYYCGQRYSYPFTFGGGTKLEIKRTVAAPSVFIFPPSDEQLKSGTASVVCLLNNFYPREAKVQWKVDNALQSGNSQESVTEQDSKDSTYSLSSTLTLSKADYEKHKVYACEVTHQGLSSPVTKSFNRGEC
notes: Human IgG1 / kappa; also called hul47

- EC50 [16]: 0.0068 µg/mL and 0.05 nM
B3: Fc-mutated humanized antibody hu147mu (antibody, human IgG1, kappa)
heavy: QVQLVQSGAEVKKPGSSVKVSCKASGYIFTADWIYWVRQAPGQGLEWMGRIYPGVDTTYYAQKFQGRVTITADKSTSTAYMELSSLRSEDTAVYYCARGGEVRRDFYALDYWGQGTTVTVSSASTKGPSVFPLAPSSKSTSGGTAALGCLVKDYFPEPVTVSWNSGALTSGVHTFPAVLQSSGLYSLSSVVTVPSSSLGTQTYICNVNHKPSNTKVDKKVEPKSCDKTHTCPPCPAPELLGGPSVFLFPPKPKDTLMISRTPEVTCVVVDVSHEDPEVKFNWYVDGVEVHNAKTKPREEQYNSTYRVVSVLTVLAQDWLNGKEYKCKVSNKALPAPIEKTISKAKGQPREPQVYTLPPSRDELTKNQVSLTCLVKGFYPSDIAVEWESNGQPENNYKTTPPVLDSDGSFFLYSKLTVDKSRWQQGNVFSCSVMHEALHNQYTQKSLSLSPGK
light: B2 light
notes: about 150 kDa; also called hul47mu

From patent US20250368740A1 (SHENZHEN BAISHITONG TECHNOLOGY DEVELOPMENT, published 2025)
